Assay results taken from the supplement of paper PMC5998384.

Legend:
HeLa Kyoto [1] = assay: solubility change mitosis vs G1/S (difference of NP-40 vs SDS log2 ratios) (log2 ratio difference); higher = more soluble in mitosis
HeLa Kyoto [2] = assay: solubility in G1/S (NP-40 vs SDS abundance) (log2 ratio); higher = more soluble; details: cell cycle stage: G1/S
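Throughout, for solubility change mitosis vs G1/S (difference of NP-40 vs SDS log2 ratios): synchronized HeLa Kyoto cells (double thymidine block for G1/S, nocodazole release for mitosis), protein amounts in NP-40 versus SDS lysates quantified by mass spectrometry, three biological replicates.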
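Throughout, for solubility in G1/S (NP-40 vs SDS abundance): HeLa Kyoto cells arrested at G1/S by double thymidine block, proteins quantified by TMT10plex mass spectrometry in mild NP-40 versus SDS extracts, three biological replicates.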

Substance | solubility change mitosis (log2) (HeLa Kyoto [1]) | solubility in G1/S (log2) (HeLa Kyoto [2])
MGELCRRDSALTALDEETLWEMMESHRHRIVRCICPSRLTPYLRQAKVLCQLDEEEVLHSPRLTNSAMRAGHLLDLLKTRGKNGAIAFLESLKFHNPDVYTLVTGLQPDVDFSNFSGLMETSKLTECLAGAIGSLQEELNQEKGQKEVLLRRCQQLQEHLGLAETRAEGLHQLEADHSRMKREVSAHFHEVLRLKDEMLSLSLHYSNALQEKELAASRCRSLQEELYLLKQELQRANMVSSCELELQEQSLRTASDQESGDEELNRLKEENEKLRSLTFSLAEKDILEQSLDEARGSRQELVERIHSLRERAVAAERQREQYWEEKEQTLLQFQKSKMACQLYREKVNALQAQVCELQKERDQAYSARDSAQREISQSLVEKDSLRRQVFELTDQVCELRTQLRQLQAEPPGVLKQEARTREPCPREKQRLVRMHAICPRDDSDCSLVSSTESQLLSDLSATSSRELVDSFRSSSPAPPSQQSLYKRVAEDFGEEPWSFSSCLEIPEGDPGALPGAKAGDPHLDYELLDTADLPQLESSLQPVSPGRLDVSESGVLMRRRPARRILSQVTMLAFQGDALLEQISVIGGNLTGIFIHRVTPGSAADQMALRPGTQIVMVDYEASEPLFKAVLEDTTLEEAVGLLRRVDGFCCLSVKVNTDGYKRLLQDLEAKVATSGDSFYIRVNLAMEGRAKGELQVHCNEVLHVTDTMFQGCGCWHAHRVNSYTMKDTAAHGTIPNYSRAQQQLIALIQDMTQQCTVTRKPSSGGPQKLVRIVSMDKAKASPLRLSFDRGQLDPSRMEGSSTCFWAESCLTLVPYTLVRPHRPARPRPVLLVPRAVGKILSEKLCLLQGFKKCLAEYLSQEEYEAWSQRGDIIQEGEVSGGRCWVTRHAVESLMEKNTHALLDVQLDSVCTLHRMDIFPIVIHVSVNEKMAKKLKKGLQRLGTSEEQLLEAARQEEGDLDRAPCLYSSLAPDGWSDLDGLLSCVRQAIADEQKKVVWTEQSPR [CARD14] | 0.0129 | -0.00296
MDEKTKKAEEMALSLTRAVAGGDEQVAMKCAIWLAEQRVPLSVQLKPEVSPTQDIRLWVSVEDAQMHTVTIWLTVRPDMTVASLKDMVFLDYGFPPVLQQWVIGQRLARDQETLHSHGVRQNGDSAYLYLLSARNTSLNPQELQRERQLRMLEDLGFKDLTLQPRGPLEPGPPKPGVPQEPGRGQPDAVPEPPPVGWQCPGCTFINKPTRPGCEMCCRARPEAYQVPASYQPDEEERARLAGEEEALRQYQQRKQQQQEGNYLQHVQLDQRSLVLNTEPAECPVCYSVLAPGEAVVLRECLHTFCRECLQGTIRNSQEAEVSCPFIDNTYSCSGKLLEREIKALLTPEDYQRFLDLGISIAENRSAFSYHCKTPDCKGWCFFEDDVNEFTCPVCFHVNCLLCKAIHEQMNCKEYQEDLALRAQNDVAARQTTEMLKVMLQQGEAMRCPQCQIVVQKKDGCDWIRCTVCHTEICWVTKGPRWGPGGPGDTSGGCRCRVNGIPCHPSCQNCH [RBCK1] | -0.0181 | 0.08
MDAAEPGLPPGPEGRKRYSDIFRSLDNLEISLGNVTLEMLAGDPLLSEDPEPDKTPTATVTNEASCWSGPSPEGPVPLTGEELDLRLIRTKGGVDAALEYAKTWSRYAKELLAWTEKRASYELEFAKSTMKIAEAGKVSIQQQSHMPLQYIYTLFLEHDLSLGTLAMETVAQQKRDYYQPLAAKRTEIEKWRKEFKEQWMKEQKRMNEAVQALRRAQLQYVQRSEDLRARSQGSPEDSAPQASPGPSKQQERRRRSREEAQAKAQEAEALYQACVREANARQQDLEIAKQRIVSHVRKLVFQGDEVLRRVTLSLFGLRGAQAERGPRAFAALAECCAPFEPGQRYQEFVRALRPEAPPPPPPAFSFQEFLPSLNSSPLDIRKKLSGPLPPRLDENSAEPGPWEDPGTGWRWQGTPGPTPGSDVDSVGGGSESRSLDSPTSSPGAGTRQLVKASSTGTESSDDFEERDPDLGDGLENGLGSPFGKWTLSSAAQTHQLRRLRGPAKCRECEAFMVSGTECEECFLTCHKRCLETLLILCGHRRLPARTPLFGVDFLQLPRDFPEEVPFVVTKCTAEIEHRALDVQGIYRVSGSRVRVERLCQAFENGRALVELSGNSPHDVSSVLKRFLQELTEPVIPFHLYDAFISLAKTLHADPGDDPGTPSPSPEVIRSLKTLLVQLPDSNYNTLRHLVAHLFRVAARFMENKMSANNLGIVFGPTLLRPPDGPRAASAIPVTCLLDSGHQAQLVEFLIVHYEQIFGMDELPQATEPPPQDSSPAPGPLTTSSQPPPPHLDPDSQPPVLASDPGPDPQHHSTLEQHPTATPTEIPTPQSDQREDVAEDTKDGGGEVSSQGPEDSLLGTQSRGHFSRQPVKYPRGGVRPVTHQLSSLALVASKLCEETPITSVPRGSLRGRGPSPAAASPEGSPLRRTPLPKHFEITQETARLLSKLDSEAVPRATCCPDVQPEEAEDHL [GMIP] | 0.0497 | 0.095
TNRC18 | -0.234 | 0.0268
